Test results: the DeepSol protein solubility set

Assay: soluble on expression in E. coli; label from the status in PepcDB or PDB records

Sequence | soluble on expression in E. coli
MLVAGAGALCLTLSGCAGAGSLGASDQTITIAMVSNSQMQDAQKLASQFEEENPDIDLKFVTLSENQARAKITASTATGGGEFDVVMISNYETPQWAKYGWLKNLSEYAEATEGYDEADFIPTLRESLSYEGNMYSVPFYGESSFLMYRKDLFEQAGITLSEKPTWTEVATAAKQLDSEDMAGICLRGKPGWGELLAPLDTVINTFGGRWFDEDWNAQLTSPEVERAVQFYVDLVREYGEPGAATSGFGECATQLAQGQVAMWYDSTSAVSTLEDPASSAVVGKIGYAPAPIEVKDNSGWLYSWSLGIPESSENPDAAWKFISWMTDKQYIRTVGEDLGWERVPPGSRLSTYEIPEYKEASAAYGPLTLEAIEDATPNAPTVQPVPYTGVQFLAIPEFQDLGTRVSQQISAAIAGQQTVPEALAQAQQYAEVVGATYREDR | not soluble
MKVGVIGASEMAGSAIYKLAKQNLEIDVTGIVRHESKAKKVLGDDAKLIVGDIFALSDNILDKFDVIIDAFGTDPKNAEEHVILAKKLINLVRKNKIRVIFILGAGSLHTGDDEHLVVDDIAQMDNADTWINTPRQQLKELEYLNSIDDVDWLGISPALQFEAGPATEYIEGTDELLYNKDGDSKLTSGTMATVVIKETVDSVHHQERITIANALEHHHHHH | soluble
AVVETAAMFDGTEGTLGRSMTLEDMELMTWAIFQSGQKIPAKVYSKILAQWDLYSYQMAVFHEAYDILLTPTVADVTPKHGQFALSESLQNQLKQIAYFDWPKQQELIWAMFADSLDWTSFTQRANLTGQPSISLPIYRNADGLSLGVQLTSAKGREDLLLLLAKQMEE | not soluble
MGSDKIHHHHHHMRLPPLNALRAFEAAARHNGYIAAAEELCVTRGAVSRHIKLLEDHLGVTLFHRNHRGVELTAAGRQLLPVLTETFARIAREAEQISAMTRDVRIICPPALSIRWLFPRLEEFQAAHPDIRVRLTTEFYGAKGFDDTEHDLGVSVEHVSGRGAGIASMPLFPMVLSPACSPALLRQRPLSAPADLARMTLLHESPQRRDWAHWLSSFGVRGVDAGSGPTFPNLDMAARAATMGAGVVMADLALCQEELRAGTLVLPFPEMTCTTPQGGYVLLGARARWDEPHLRAFRDWAASSSADLVACMGA | not soluble
MSESSEWLIYRGAGEPHDGVDRLPDPPPWRDFTSRDAAGSGDGSEDRRLGAHRHLAELHRPGAEELEMINAALYLRRPLLVTGSPGAGKSTLAHSVAYELGLGNVLRWSIVSRSELQDGLYHYDAIARLQDVQIAAQADNGPGSGTPGAVDGIGGYIRLGPLGTALLPSDKPRVLLIDELDKSDIDLPNDLLNVLEEGEFAIPELERVADRLPDRTAEVLTADGVKVPVRDGRVRCRAFPFVVLTSNGERDFPAPLMRRCIHLELGRPDHNRLATFVRAHLGDEAARAGDDLVTRFLERSRSELLATDQLLNAIYLTDAAATPSRDRLADLLIQRLDRPRLEHHHHHH | soluble
MSLALNPAVAPIKSIEFIPVNYQASNWSQNTVVVKVTDENGVYGLGEADGSPDAILAYANIETEHKWLTNITEKAIGRLPIEINAIWDAMYDATQWQGMRGLGMFALSGIDMALYDLAGKQLGVPAYQLLGGTNKDKVHPYLTLYPAIPVDASLDVAIKGYAPLLEKAKAHNIRAVKVCVPIKADWSTKEVAYYLRELRGILGHDTDMMVDYLYRFTDWYEVARLLNSIEDLELYFAEATLQHDDLSGHAKLVENTRSRICGAEMSTTRFEAEEWITKGKVHLLQSDYNRCGGLTELRRITEMATANNVQVMPHNWKTGITSAAAIHYQFAVGNAPYFEYVHPEFCDGELRKYLVTPEAELVDGGFAKPTAPGLGIDLNQEFLASLEGHHHHHH | soluble
MAELHIIGQIIGATGFPQNSLFCKWGVHTGGAWRLLSGLREGQTQVDMPQTGDMAYWSHPIDLHYTTKGLQGWPKLHLQVWHQDSFGRCQLYGYGYIHVPSSPGQHRLQCVTWRPLGSWQDQLSEMFVGGGPQLRSPDLIYSGADRYRLHTVGMGTVELELCIILRHFDRYGVES | not soluble
MKLIFLSGVKRSGKDTTADFIMSNYSAVKYQLAGPIKDALAYAWGVFAANTDYPCLTRKEFEGIDYDRETNLNLTKLEVITIMEQAFCYLNGKSPIKGVFVFDDEGKESVNFVAFNKITDVINNIEDQWSVRRLMQALGTDLIVNNFDRMYWVKLFALDYLDKFNSGYDYYIVPDTRQDHEMDAARAMGATVIHVVRPGQKSNDTHITEAGLPIRDGDLVITNDGSLEELFSKIKNTLKVL | soluble
MTVSRFLRNPEQVSVALRGKIAAALDELGYIPNRAPDILSNATSRAIGVLLPSLTNQVFAEVLRGIESVTDAHGYQTMLAHYGYKPEMEQERLESMLSWNIDGLILTERTHTPRTLKMIEVAGIPVVELMDSQSPCLDIAVGFDNFEAARQMTTAIIARGHRHIAYLGARLDERTIIKQKGYEQAMLDAGLVPYSVMVEQSSSYSSGIELIRQARREYPQLDGVFCTNDDLAVGAAFECQRLGLKVPDDMAIAGFHGHDIGQVMEPRLASVLTPRERMGSIGAERLLARIRGESVTPKMLDLGFTLSPGGSI | not soluble
MKVKIAFTTTDRIHVNAHFGWAREIDIYEISDHGYEFLETLKFEGDLKEDGSEDKITPKLEALNGCTIVYVVAIGGSAAARLIKGGVTPVKAKSEEEKIEEVLTKLVKTLKGNPPPWLRKALQPKTLNFADEVENEATV | not soluble
MIKPEYVVKLLSENMKKTRNPLGIKNEKTNNWWKKVEISKEGDWLFFTGMLYQLTPYIEATVKFLEKIENSRLQGLLTLSKAFPVPFSLLKAITPREAREEAETILQKVYFLLAKSVDVFYAPHLDFYSGILLYDFGHDEAFAEHAKFVCKRLESAGIEKIVTPDPHTTYALKVLYPKFTGVEFDVKSYIELLSDAKSLFNEEFVIHDPCYYGRYLELSDRVREVLNCAGVKYRGVRYSGRLTNCCGGPVEALSPKISREIARLRVEELGNSRIITFCPICLANLRRAGGNAVDFSMVVG | not soluble
MRRIITMTVNNRPGVLNRITGLFTKRHYNIESITVGHTEIEGISRMTFVVNVDDERTAEQIIKQLNKQIDVLKVNDITDQAIVARELALIKVAAPPAVRQEIYTLIEPFRASIVDVSKDSLVIQVTGEPEKVEALIELLRPYGIKEVARTGTTAFTRGAQKATTNQKTAFII | not soluble
MYMAQPGHIDHIKQINAGRVYKLIDQKGPISRIDLSKESELAPASITKITRELIDAHLIHETTVQEAISRGRPAVGLQTNNLGWQFLSMRLGRGYLTIALHELGGEVLIDTKIDIHEIDQDDVLARLLFEIEEFFQTYAAQLDRVTSIAITLPGLVNSEQGIVLQMPHYNVKNLALGPEIYKATGLPVFVANDTRAWALAEKLFGHSQDVDNSVLISIHHGLGAGIVLDGRVLQGRHGNIGELGHIQIDPQGKRCHCGNYGCLETVASSQAIRDQVTARIQAGEPSCLATVEEISIEDICAAAADGDPLAVDVIQQLGRYLGAAIAIVINLFNPEKILIGGVINQAKSILYPSIEQCIREQSLPVYHQDLKLVESRFYKQATMPGAALIKQALYDGLLLMKVVEG | soluble
MILDVDYITEEGKPVIRLFKKENGKFKIEHDRTFRPYIYALLRDDSKIEEVKKITGERHGKIVRIVDVEKVEKKFLGKPITVWKLYLEHPQDVPTLREKVREHPAVVDIFEYDIPFAKRYLIDKGLIPMEGEEELKILAFDIETLYHEGEEFGKGPIIMISYADENEARVITWKNIDLPYVESVSTEKEMIKRFLRIIREKDPDIIVTYNGDSFDFPYLAKRAEKLGIKLTIGRDGSEPKMQRIGDMTAVEVKGRIHFDLYHVIRTTINLPTYTLEAVYEAIFGKPKEKVYADEIAKAWESGENLERVAKYSMEDAKATYELGKEFLPMEIQLSRLVGQPLWDVSRSSTGNLVEWFLLRKAYERNEVAPNKPSEEEYQRRLRESYTGGFVKEPEKGLWENIVYLDYKSLYPSIIITHNVSPDTLNLEGCKNYDIAPQVGHKFCKDIPGFIPSLLGHLLEERQKIKTKMKETQDPIEKILLDYRQKAIKLLANSFYGYYGYAKARWYCKECAESVTAWGRKYIELVWKELEEKFGFKVLYIDTDGLYATIPGGESEEIKKKALEFVKYINSKLPGLLELEYEGFYKRGFFVTKKRYAVIDEEGKVITRGLEIVRRDWSEIAKETQARVLETILKHGDVEEAVRIVKEVIQKLANYEIPPEKLAIYEQITRPLHEYKAIGPHVAVAKKLAAKGVKIKPGMVIGYIVLRGDGPISNRAILAEEYDPKKHKYDAEYYIENQVLPAVLRILEGFGYRKEDLRYQKTRQVGLTSWLNIKKS | soluble
MAHHHHHHMIPKESMNVDQSRYETQEGTIVENKLTPFLELTSGEIPMWVKQKYLLSPIDTSKYSDDFYKLGPDDFGKLSGEQVKPDLIKSKLPSSVLHKIWNLADITKDGYLDLFEYSLARHFIEMKTEGFDLPTKVPKDIINSHEY | soluble
MSLAMQDFRPGVYRHYKGDHYLALGLARADETDEVVVVYTRLYARAGLPMSTRLLRIWNETVDTGAGPQPRFAYVGHVTPEQGEGHHHHHH | soluble
MGSDKIHHHHHHAEYIHVIPADASAVASINLNSLADKAGLNDKQNEGMKQKMMEALKSGMNAAAFQQLEKIMKNPSQSGIDVKAPVFVFTSKTFISPTIVAKVSNIEDLRASLDLMAKEGICQPIAEEEGYSFTSLQKNNLLVFNENAAVLTEAYGTSQMDVAKQTISTLLKQTEENSIASNGSFRKMQDQKGDINFFASMDAVPKMYTQQISLGLSSQIDLSEVKAVGNLNFEKGKIALQIETYSDNAETDALLKKQAQAVKKLNTTFLQNFPESTLAFLNIGVNGAAFYDLLFNNEEFRRNVSLAKADEVKSLFASFDGDISIGLINVTLNSVPTFAAYADAKNGNALKALYDNKKQLKLGKNEDIIQLGENEYVYKSRATNVFFGIRNKQMYATNDELLYKSISKPVEKSIKDAGYVSDMKGKNVFFVINMDAILDLPVVKMMAGFGGEEYQTYYKLASKISYIEAFSDSEGKTETAILLKNKDDNALKQIVDFAKQFAGM | not soluble
MGSDKIHHHHHHMRKSRDANPFKAMPNILYPDELMDKAYNRSEKIAGELRTTTRGLSTPKSKIIEDNKIRTTASVISDNLLKIVEKTPSIDNLDPFYREILEIMVGSDEFKKSLAAVQWASEIVKKLGTQYSRKVKKAPSPQATSIVRKEFIGRVSSVLKQIYPNMAFLGVARNKLKNIPTVKNLPSVVIAGYPNVGKSTLLRTLTDAEPEVNSYPFTTKGLNIGYTEEGIQIIDTPGVLDRPIYERNDIELHAVVAINYLSDMILFVIDPTEFCGFTMEEQFNLLQEIRKTFNVPILVALTKMDVDEIEGLDKLEEDLGEYEVLKVSSFKKEGIADLRERLLDILDEQGLMGLLEE | not soluble
MSLKRFIPAWYSRNRWWESTSRPFYLKKQYTDFDDMISLMTMHSSNNVDYQLIVLSFSPYLRTFLHRYDLYESHYWSVFDEIQGIGHQTPQAIDYRDLSWPEGTEFIFTPFQIQAITGDNTFSKIHFSQEGYLMWVEDYKYSTIQRRFVFDDRGFISAVRTYTPDGDNNKKHYFSKDGEEIFVEDLNVNTVTINKNFQSKFKKVTYSSMAELIEEKFQSYVERELNEDDSVIVASDERHNSMMARTIDAPSLCFSIFTERNKVVTQDLYDSISRAYYCLVDTQANQNMIEHYAGLNMNNFNLLRVTPFDAQSLPNQSSQLYDTYIGLWIDGLDEIEIREIVNSLFQYIQHKDGYKLKILTKSRDNLTENLIDEVAHLNDLYHQEKKEISDVIEDVIQNKKETIIDIETVPFEEDLVSVISKLRVVVDLSLEPKLFLQICCIGAGIPQINKKRTDYVKHMHNGYIIDDISQTVESLDYFLAHLKNWNYSYAYSMRLTDDFSSINIIHQINQLFKGDVSSGTEGHHHHHH | soluble
